assay: soluble on expression in E. coli; label from the status in PepcDB or PDB records

Sequence	soluble on expression in E. coli
MEGESVKLSSQTLIQAGDDEKNQRTITVNPAHMGKAFKVMNELRSKQLLCDVMIVAEDVEIEAHRVVLAACSPYFCAMFTGDMSESKAKKIEIKDVDGQTLSKLIDYIYTAEIEVTEENVQVLLPAASLLQLMDVRQNCCDFLQSQLHPTNCLGIRAFADVHTCTDLLQQANAYAEQHFPEVMLGEEFLSLSLDQVCSLISSDKLTVSSEEKVFEAVISWINYEKETRLEHMAKLMEHVRLPLLPRDYLVQTVEEEALIKNNNTCKDFLIEAMKYHLLPLDQRLLIKNPRTKPRTPVSLPK	soluble
MEGISKPMERYDSVVFAGMKQDGTIEFIKVYALNEDLAITILDQFLRENNLHPSDFVVIQRGLEDIKGKDIISTRTEEDLSAMLARLGLRLVSNGVLHTRGAEKIYQITAISKSLIERLQGEDKDKVSTIIKEEISIDFSNLKLPEKYMKKLLLLSLMEDTFILNRAELNVPEVIKRAVKGVVSIPRLIERDNIIIKVFDEELHTVQGSYLDRVIITPPVVHWDAHIDELDSFSFQEVEENVYEPPLFVKAMKGFLVLTEPPRDLVVMLLKLKRRGEVKVSLKGRQIRIPLNFTLVVDTKYPERYSGLKFPIRINLPPFDDETFAQMLSMVLGTKVPQDLVAMFPEEYKTFLGVEILSNLWKKLRKRGRKSEIELLKEMATIVTGGII	soluble
MEGQENKVLFGLENVHYATYSETDGVITYDTPKPLPGGVEISVEPQGDMIKFYADNIVYYQAPNNQGYEGTLTIASIPEGFATDCLGEELDTVDGVLTEKSDAKPKPFALLFEFDGDVKSVRQVLYNCTASRPTVASSTLEHHHHHH	soluble
MEGVRLGWRGLSREGRGGAWHAAERTRPCTQRVPPSSQKIALQLKATLENVTNLRPVGEDFRWYLKMKCGNCGEISEKWQYIRLMDSVALKGGRGSASMVQKCKLCARENSIDILSSTIKAYNAEDNEKFKTIVEFECRGLEPVDFQPQAGFAADGVESGTVFSDINLQEKDWTDYDEKAQESVGIFEVTHQFVKC	soluble
MEHLGKVFREFRTSGNYSLKEAAGESCSTSQLSRFELGESDLAVSRFFEILDNIHVTIENFMDKARNFHNHEHVSMMAQIIPLYYSNDIAGFQKLQREQLEKSKSSTTPLYFELNWILLQGLICQRDASYDMKQDDLGKVADYLFKTEEWTMYELILFGNLYSFYDVDYVTRIGREVMEREEFYQEISRHKRLVLILALNCYQHCLEHSSFYNANYFEAYTEKIIDKGIKLYERNVFHYLKGFALYQKGQCKEGCKQMQEAMHIFDVLGLPEQVAYYQEHYEKFVKS	not soluble
MEIGDVSTGYLEDALIEFSGRSKRRRLSFNGAEDKPDNDLDHSQNHWGLSENYSCTSSQFAEKNDYDEKKRVVYPFGVVKPGGREEDITLNDINKRILMPSARPVRHPVGDFACRPCVSADGPGLSGKAVVAFTKIQTLGRGTITIIRTKG	soluble
MEIIIVGGFLGSGKTTTLNHLITDALDHNLKTALIINEFGKMSVDSQLIHPTIPISEIVEGCICCAMKSNVSQQLHEIYLEHQPDLVFIECSGIAEPLAVVDACLTPVLAPITTIRSMLGIIDAKLYEKIETYPRDIQALFYEQLSYCSTLFVNKIDIADFNQVARLLRHLEVINRDANIQVGQWGELALNTLLNVKHLDAKQRGTLHHAINHQLIDTPRSQTKADFIERLTQLPQQVYRVKGFVRFTDSKLIHLVQYAEGEIELTPIQFKSDVPLYLVVIGKHLDAIELDLLEHHHHHH	not soluble
MEILSGRSSIIIDTDPINVYNQAHPPFSFPIPAKDVMSVASRPDLRNENLMVFSSIEGDLALLKSMNLPANVKIVYDNTDGSWVRYYPYAFYRSINAEELYAKIDDFVVLDIREEFELFSGFIEGSVNIPFSSIMQEPVELDKNRKYAVVCAHGNRSRVAVELLSSKGIEVYDVPGGMQKWLETGLPVSYEED	not soluble
MEIPPTNYPASRAALVAQNYINYQQGTPHRVFEVQKVKQASMEDIPGRGHKYRLKFAVEEIIQKQVKVNCTAEVLYPSTGQETAPEVNFTFEGETGKNPDEEDNTFYQRLKSMKEPLEAQNIPDNFGNVSPEMTLVLHLAWVACGYIIWQNSTEDTWYKMVKIQTVKQVQRNDDFIELDYTILLHNIASQEIIPWQMQVLWHPQYGTKVKHNSRLPKEVQLE	soluble
MEIPSYASNIQPYGSQSGTKIASENDNAKSVSLSGDNSRSVSRTDKLSEHFSEQVRARQQESAETAMAQAKQRQRLNEEQLAKMVEQMNEFVKSINKGLSFRLDRESGREVVTIYEASTGDIIRQIPEEEMLEVLRRLAREQDHRSGLLMAKV	not soluble
MEITRLLTLYYEATPDPQNPLEGVRFGTSGHRGSSLKATFTEAHVLAIAQAIAELRPSFGATGPLFLAKDTHALSEPAWATALSVFAAHGIEVRVEADGDYTPTPLVSLAILEHNAHHEAKADGVLLTPSHNPPEDGGFKYNPPTGGPANARITRAIEERANALLQEGLKGVKRLPLREALARAKPFDYAGLYVEKVAEAVDLEAIRASGLRIGVDPLGGASLRVWERLAESHGLPLEVVNPTLDPTFRFMPKDHDGKIRMDCSSPYAMAGLLALKDRFDLAIGNDPDADRHGIVTPRGLMNPNHYLAAALHHLYTTRSWPGAKVGKTAVTSALLDRVAQALGREVYETPVGFKHFVAGLLEGWLGFAGEESAGASFLRFDGRPFSTDKDGILMGLLAAELMAKRGQAPDALYEALAEKLGRPYYARKDLPVSPEAKARLARLSAKEVHPSTLAGEPVLQVLDRATGNGEPLGGIKVVAANAWFAVRPSGTEDVAKVYAESFLGEAHLERVLEEATALLHKALA	soluble
MEKEKSKTESLKKDEIDEANSESSKVPLAIDPEEAKLPNAGGKSEHMVVNFTSKRMAIKVRCGNALFRVEPTHMIIEPNKCRQLTINRMPGPIQKDKAIVQYLQIENDVQDPKTAFKAADSAGTKIPHLKIKLVAGASGGRQMSREVVDE	not soluble
MEKFNNIAQLKDSGLKVTGPRLKILDLFETHAEEHLSAEDVYRILLEEGVEIGVATIYRVLTQFEQAGILQRHHFETGKAVYELDKGDHHDHIVCVKCGEVTEFHNPEIEALQDKIAEENGYRIVDHALYMYGVCSDCQAKGKR	not soluble
MEKIAVVGAGITGLFTAYYLSASGFDVEVFDKGDIASGTSGKFHGMLHSGARYAVTDKVSASECISENNTISSFARWFINDTGGYFVSSNREESDYGDTLTKACNDAGIPNYDIDVDEFKKIEPNVKNVDRVIHVPDKVIRAYEFSAAVAAEAFMNGTKFRLYSPVASVSEKGGKYVLGIERNGSLHYEHFDLIVNATGPFSGEFLKLAGYGGSPVMPSAGIMVVFSKPIVRSIINRMREPSDADIMVPYDGLSILGTSAVIVDDPENFSIDSEDVEAMIEDMSSLIPLIRNVNYSRTYYSVRPLLEDEGDDARKASRSFRIIKNGEGVFTVVGGKFTTGRLIGEHVAKEISKETGATIRIENPDLNSTYERFIEKYGRDDKYIAKAMSRIGTIDEENAMRSVAYAISTIIEGSLEHHHHHH	not soluble
MEKIKIIVASDSIGETAELVARAGISQFNPKQCKNELLRYPYIESFEDVDEVIQVAKDTNAIIVYTLIKPEMKQYMSEKVAEFQLKSVDIMGPLMDLLSASVEEKPYNEPGIVHRLDDAYFKKIDAIEFAVKYDDGKDPKGLPKADIVLLGISRTSKTPLSQYLAHKSYKVMNVPIVPEVTPPDGLYDIDPKKCIALKISEEKLNRIRKERLKQLGLGDTARYATEARIQEELNYFEEIVSEIGCPVIDVSQKAIEETANDIIHYIEQNKSKLEHHHHHH	not soluble
MEKKLLRKEVLITLKSQPQAYKSEVDCKLLEAFIKTKAYQNSCVIATYLSFDYEYNTQLLIKQALCDGKRVLVPKTYPKGKMIFVDYQKDNLRTTPFGLLEPVNDRAVEKASIDLIHVPGLIFNNKGFRIGYGAGYFDRYLSDFEGDTISTIYRCQRQDFVEEKHDVAVKEVLCLLEHHHHHH	soluble
MEKKLPRIKALLTPGEVAKRSGVAVSALHFYESKGLITSIRNSGNQRRYKRDVLRYVAIIKIAQRIGIPLATIGEAFGVLPEGHTLSAKEWKQLSSQWREELDRRIHTLVALRDELDGCIGCGCLSRSDCPLRNPGDRLGEEGTGARLLEDEQN	soluble
MEKLRIKGMSYTMCSGKFSIDKEMAETQHGTTVVKVKYEGAGAPCKVPIEIRDVNKEKVVGRIISSTPLAENTNSVTNIELEPPFGDSYIVIGVGNSALTLHWFRKGSSIGK	soluble
MEKLTIQEEEVMLHIWSMGECFVKDIVAKFPEPKPPYTTVASIVNNLKRKGYVTAKRFGNTYQYTPVVKQSEYKRTFVSGVVRNYFADSYKEMVSFFAKEQKISAADLKDIINLIEKEEDK	not soluble
MEKLYEGKAKVLYREGPDTLRVYFKDEATAFNAQKRGVIPGKGVVNNKVSAALFRYLEAHGVKTHFLEEVSDREMRVRRVEILPLEVILRFRAAGSFARRYGLKEGTPLKMPLLEFSLKNDALGDPLICENAVLALGLTTEGELEGVKAATLRVGDLLKAFFAERGLELVDFKLEFGKVGGEILLADEISPDTMRLWDEKGEPLDKDRFRKDLGGVEEAYREVLRRVLG	soluble
MEKRKHFTPEQKAKIVIEVIKGERTLNEIAAEYGIHPNLLSRWKTEFISNAGRVFSKETDEVEKVKQSYEKEKDELLKQIGQLSYEVAWLKKKSGLL	not soluble
MEKSLKNYKTLQQLFVRRLKAGVRPVDADEHTVVSPVDAVIEDMGTIRENCEMIVKGKPYSIAEMLGSVEAAQPYVNGFFFILYLSPSHYHRIHSPISGVIEKQWALGRKSYPVNRLGLKYGRRPLEKNYRLITEVTAGGKRLAIVKIGAMFVNSIELTHEGEQLVKGEEMAYFSFGSTVVLLFERGSFAPDPRIVAPMPIKVGERLGYWCEAHER	not soluble
MELEAGTVVEGRVVRVVSFGAFVELAGGEQGLVHISQIAHEYVTNVRDYLNEGDIVQVLIKGRDAKGRLDLSIKDLTPAPEGGAPPPRPRRLPKQSPEFENKLKSFLRGTGGFGGKGKKGGRKKR	soluble
MELIQDTSRPPLEYVKGVPLIKYFAEALGPLQSFQARPDDLLINTYPKSGTTWVSQILDMIYQGGDLEKCNRAPIYVRVPFLEVNDPGEPSGLETLKDTPPPRLIKSHLPLALLPQTLLDQKVKVVYVARNPKDVAVSYYHFHRMEKAHPEPGTWDSFLEKFMAGEVSYGSWYQHVQEWWELSRTHPVLYLFYEDMKENPKREIQKILEFVGRSLPEETMDFMVQHTSFKEMKKNPMTNYTTVPQELMDHSISPFMRKGMAGDWKTTFTVAQNERFDADYAEKMAGCSLSFRSEL	soluble
MELKTSDVAARLGVSPKTIQRWVRKYDIPLRRNEAGHYLFDEKTVALLERVKFEQGAAMEAPPTPKRPPTPLRNNIPIDALHESIEPEIARVSSRLDQLERQLEQKADDVVSIQLLHHRQEMEEIVARLTALEQLVARLEQQLNTRPPAPHEPPEETKQKRRGLGRVMGLFA	not soluble
MELRAATKLTEEKYELKEGQTLDVKCDYTLEKFASSQKAWQIIRDGEMPKTLACTERPSKNSHPVQVGRIILEDYHDHGLLRVRMVNLQVEDSGLYQCVIYQPPKEPHMLFDRIRLVVTLEHHHHHH	soluble
MEMDLPVSAIGFEGFEKRLEISFVEPGLFADPNGKGLRSLSKAQLDEILGPAECTIVDNLSNDYVDSYVLSE	soluble

Reference: the DeepSol protein solubility set
